Measured values from patent US20260258139A1 (BRIGHAM AND WOMEN S HOSPITAL, published 2026).
Positions count from the first letter of the chain named.

B1: antibody 11.45 (antibody, human IgG1, kappa, V domains shown)
VH: QVQLVQSGAEVKKPGASVKVSCKASGYTFTGYTMNWVRQAPGQGLEWMGLINPSSGGTYYNQKFKDRVTMTRDTSISTAYMELSRLRSDDTAVYYCARLGDNYRGYFDYWGQGTTVTVSS
VL: DIQLTQSPSFLSASVGDRVTITCKASQDVGTAVVWYQQKPGKAPKLLIDWASIRHTGVPSRFSGSGSGTEFTLTISSLQPEDFATYYCQQYSTYLYTFGGGTKLEIKR
notes: Human IgG1-kappa produced in CHO cells
B2: antibody 11.12 (antibody, human IgG1, kappa, V domains shown)
VH: B1 VH with T28S, S54N, S55T
VL: B1 VL with T85D, Y87F
notes: as for B1
B3: antibody 11.27 (antibody, human IgG1, kappa, V domains shown)
VH: B1 VH with T28S, S55T, Y109S
VL: B1 VL with T85D, Y87F
notes: as for B1
B4: antibody 11.29 (antibody, human IgG1, kappa, V domains shown)
VH: B1 VH with T28S, Y109S
VL: B1 VL with T85D, Y87F
notes: as for B1
B5: antibody 11.41.1 (antibody, human IgG1, kappa, V domains shown)
VH: B1 VH with T28S, S55T, Y109V
VL: B1 VL
notes: as for B1
B6: antibody 11.44.1 (antibody, human IgG1, kappa, V domains shown)
VH: B1 VH with T28S, Y109V
VL: B1 VL
notes: as for B1
B7: antibody 11.54 (antibody, human IgG1, kappa, V domains shown)
VH: B1 VH with T28S
VL: B1 VL with T31S, T56S
notes: as for B1
B8: antibody 11.55 (antibody, human IgG1, kappa, V domains shown)
VH: B1 VH with T28S
VL: B1 VL with K24R
notes: as for B1
B9: antibody 11.57 (antibody, human IgG1, kappa, V domains shown)
VH: B1 VH
VL: B1 VL with K24R, T31S, T56S
notes: as for B1
B10: antibody 12.0 (antibody, human IgG1, kappa, V domains shown)
VH: B1 VH with S55T
VL: B1 VL with K24R
notes: as for B1
B11: antibody 12.1.3 (antibody, human IgG1, kappa, V domains shown)
VH: B1 VH with S55T
VL: B1 VL with K24R, D28G, V29I, T31S
notes: as for B1
B12: antibody 12.2 (antibody, human IgG1, kappa, V domains shown)
VH: B1 VH with S55T
VL: B1 VL with K24R, D28G, V29I, G30S, T31S, A32Y, V33L, V34A
notes: as for B1
B13: antibody 12.3 (antibody, human IgG1, kappa, V domains shown)
VH: B1 VH with S55T
VL: DIQLTQSPSFLSASVGDRVTITCRASQGISSYLAWYQQKPGKAPKLLIYWASIRHTGVPSRFSGSGSGTEFTLTISSLQPEDFATYYCQQLSTYPYTFGGGTKLEIKR
notes: as for B1
B14: antibody 13.4 (antibody, human IgG1, kappa, V domains shown)
VH: B1 VH with S55T
VL: EIVMTQSPATLSVSPGERATLSCRASQDVGTAVVWYQQKPGQAPRLLIDWASIRHTGIPARFSGSGSGTEFTLTISSLQSEDFAVYYCQQYSTWPLTFGGGTKVEIKR
notes: as for B1
B15: antibody 13.2 (antibody, human IgG1, kappa, V domains shown)
VH: B1 VH with S55T
VL: B14 VL with W94Y, P95L, L96Y
notes: as for B1
B16: antibody 13.5 (antibody, human IgG1, kappa, V domains shown)
VH: B1 VH with S55T
VL: B14 VL with D28S
notes: as for B1
B17: antibody 13.6 (antibody, human IgG1, kappa, V domains shown)
VH: B1 VH with S55T
VL: B14 VL with D28S, A32N, V33L, V34A
notes: as for B1
B18: 10A3D6hum2.2 (antibody, human IgG1, V domains shown)
VH: B1 VH with T28S, G44N, M48I, S54N, S55T, M70L, R72V, Y109S
VL: DIQLTQSPSFLSASVGDRVTITCKASQDVGTAVVWYQQKPGKAPKLLIDWASIRHTGVPSRFSGSGSGTEFTLTISSLQPEDFADYFCQQYSTYLYTFGGGTKLEIK
notes: tested as human IgG1-kappa produced in CHO cells
B19: 10A3D6hum1.2 (antibody, human IgG1, V domains shown)
VH: B1 VH with T28S, S54N, S55T, Y109S
VL: B18 VL
notes: as for B18
B20: 10A3D6hum8.2 (antibody, human IgG1, V domains shown)
VH: B1 VH with T28S, G44N, M48I, S54A, S55T, M70L, R72V, Y109V
VL: B18 VL
notes: as for B18

Legend:
[1] = target: T1, human KLRB1 extracellular domain (ECD), amino acids 67-225 of human KLRB1 protein (human, UniProt Q12918 67-225); test: SPR (Biacore 8K), antibody fixed on chip, human KLRB1 ECD as analyte
T1 construct: Soluble analyte in SPR; also called KLRB1 ECD; CD161 ECD
T1 sequence: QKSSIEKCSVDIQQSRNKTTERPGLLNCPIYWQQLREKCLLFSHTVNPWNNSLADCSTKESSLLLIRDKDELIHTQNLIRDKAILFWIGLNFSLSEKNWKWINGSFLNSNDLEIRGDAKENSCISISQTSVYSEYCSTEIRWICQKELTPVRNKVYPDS
Protocol: (§1) Various humanized antibodies derived from humanized variants of antibody 10A3D6 with human IgG1-kappa were produced in CHO cells and then assayed for binding against human KLRB1 extracellular domain (ECD) via surface plasma resonance (SPR). Human KLRB1 extracellular domain was amino acids 67-225 from human KLRB1 protein (SEQ ID NO: 1). […] Antibody was fixed to the chip and analyte of human KLRB1 extracellular domain (ECD) was flowed over the surface at 30 ul/min, with contact time 120 seconds and dissociation time 360 seconds. The results are shown from two separate experiments in Tables 20 and 21.

[2] = target: T1, human KLRB1 extracellular domain (ECD), …; test: SPR (Biacore 8K), antibody fixed on chip, human KLRB1 ECD as analyte; second experiment
Protocol: as §1

[3] = target: T2, human KLRB1 expressed on CHO-hum-KLRB1 cells (human, UniProt Q12918 1-225); test: cell-based or functional assay
T2 sequence: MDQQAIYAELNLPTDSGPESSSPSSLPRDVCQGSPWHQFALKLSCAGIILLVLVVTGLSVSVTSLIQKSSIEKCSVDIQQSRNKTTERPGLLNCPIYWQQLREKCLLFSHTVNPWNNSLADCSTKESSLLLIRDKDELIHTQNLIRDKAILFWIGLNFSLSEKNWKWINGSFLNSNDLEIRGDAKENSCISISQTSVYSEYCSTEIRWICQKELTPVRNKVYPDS

[4] = target: T2, human KLRB1 expressed on CHO-hum-KLRB1 …; test: cell-based or functional assay; remark: listed apart in the source

| Binder | Kd [1] [nM] | koff [1] [s⁻¹] | kon [1] [M⁻¹ s⁻¹] | Kd [2] [nM] | koff [2] [s⁻¹] | kon [2] [M⁻¹ s⁻¹] | EC50 for ADCC (target cell lysis, LDH release) [3] [nM] | Span (fitted span of the ADCC dose-response curve, % target cell lysis of CHO-K1/human KLRB1 cells with PBMCs, E:T=25:1) [4] |
| --- | --- | --- | --- | --- | --- | --- | --- | --- |
| B1 | 1.26 | 0.000227 | 181000 |  |  |  |  |  |
| B2 | 0.275 | 0.00012 | 434000 |  |  |  |  |  |
| B3 | 0.314 | 0.000123 | 391000 |  |  |  |  |  |
| B4 | 0.743 | 0.000207 | 278000 |  |  |  |  |  |
| B5 | 0.414 | 0.000167 | 403000 |  |  |  |  |  |
| B6 | 1.09 | 0.000234 | 215000 |  |  |  |  |  |
| B7 | 2.24 | 0.000315 | 141000 |  |  |  |  |  |
| B8 | 1.23 | 0.00022 | 180000 |  |  |  |  |  |
| B9 | 2.08 | 0.000308 | 148000 | 2.52 | 0.000308 | 122000 |  |  |
| B10 |  |  |  | 0.597 | 0.000145 | 243000 | 0.0054 | 80.8 % Target Cell Lysis (axis; the table prints no unit) |
| B11 |  |  |  | 1.75 | 0.000248 | 141000 |  |  |
| B12 |  |  |  | 1.54 | 0.000236 | 153000 |  |  |
| B13 |  |  |  | 68.8 | 0.00135 | 19700 |  |  |
| B14 |  |  |  | 14.6 | 0.00217 | 149000 |  |  |
| B15 |  |  |  | 0.444 | 0.000133 | 300000 | 0.0083 | 77.8 % Target Cell Lysis (axis; the table prints no unit) |
| B16 |  |  |  | 20.3 | 0.00177 | 87300 |  |  |
| B17 |  |  |  | 44.8 | 0.00269 | 60000 |  |  |
| B18 | 0.263 | 8.18e-05 | 311000 |  |  |  | 0.0048 | 74.2 % Target Cell Lysis (axis; the table prints no unit) |
| B19 | 0.279 | 0.000135 | 485000 | 0.344 | 0.000107 | 310000 | 0.0058 | 75 % Target Cell Lysis (axis; the table prints no unit) |
| B20 | 0.512 | 0.000171 | 335000 |  |  |  |  |  |
